Results on seven molecules are retold here after patent publication US20240076392A1, “ANTI-CD123 BINDING MOLECULES AND USES THEREOF” (IGM Biosciences, Inc., priority 2021, published 2024).

One test concerns the target T1, human CD123 on CHO cells (Homo sapiens, UniProt P26951).
T1 construct: expressed in transfected cells; host or cells: CHO cells
T1 sequence (P26951 19-378): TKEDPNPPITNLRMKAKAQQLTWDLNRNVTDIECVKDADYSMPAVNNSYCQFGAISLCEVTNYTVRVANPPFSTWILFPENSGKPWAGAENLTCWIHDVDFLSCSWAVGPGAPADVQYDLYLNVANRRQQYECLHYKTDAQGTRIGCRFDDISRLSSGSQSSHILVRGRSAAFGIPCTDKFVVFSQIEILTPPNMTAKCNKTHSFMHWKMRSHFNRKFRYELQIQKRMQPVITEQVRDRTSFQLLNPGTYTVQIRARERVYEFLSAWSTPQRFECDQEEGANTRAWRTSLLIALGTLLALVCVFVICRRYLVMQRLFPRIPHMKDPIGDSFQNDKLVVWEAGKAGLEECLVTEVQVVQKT
The experiment in a line: Flow cytometry binding of IgG antibodies to CD123 expressing CHO cells. The settings on record: 4-parameter logistic model; for Max binding intensity (MFI): flow cytometry. The protocol:
To assess the ability of IgG antibodies to bind CD123 on CHO cells expressing the human CD123, a binding assay was performed. CHO cells expressing human CD123 were detached from flask using trypsin. Cells (1×105) were pipetted into wells in a round bottom 96 well plate, washed with FACS Stain Buffer (BD Pharmigen Catalog #554656) and pre-incubated with Fc Block (BD, #564220) for 10 minutes at room temperature followed by incubation at 4° C. with serial dilutions of 32716 or h32716 IgG antibodies for 30 minutes. Cells were washed twice and stained with a mouse anti human kappa antibody conjugated with Alexa647 (Southern Biotech, clone SB81a). Cells were analyzed by flow cytometry. Mean fluorescence intensity (MFI) values were analyzed with GraphPad Prism using a 4-parameter logistic model. All humanized IgG antibodies of 32716 anti-CD123 bound with similar affinities and intensities.

Test [1] deals with T2, recombinant human CD123 protein (CD123)-His (Homo sapiens, UniProt P26951).
T2 construct: purchased Acrobio (Acro Biosystems) ILA-H52H6
T2 sequence (P26951 19-378): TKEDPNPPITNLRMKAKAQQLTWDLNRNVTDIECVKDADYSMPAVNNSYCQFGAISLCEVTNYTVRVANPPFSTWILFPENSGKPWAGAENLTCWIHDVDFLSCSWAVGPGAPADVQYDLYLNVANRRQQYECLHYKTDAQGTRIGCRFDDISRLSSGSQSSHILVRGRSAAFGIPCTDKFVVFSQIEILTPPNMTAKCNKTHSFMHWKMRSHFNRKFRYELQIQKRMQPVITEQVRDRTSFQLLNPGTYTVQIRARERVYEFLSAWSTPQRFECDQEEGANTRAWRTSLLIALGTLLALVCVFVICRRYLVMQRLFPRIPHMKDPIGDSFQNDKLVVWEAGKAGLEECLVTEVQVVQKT
The experiment in a line: Biolayer interferometry (Octet) affinity measurement of IgG antibodies. It is filed as binding. Conditions: IgG format. How it is done:
The binding affinities of parental 32716 IgG and humanized variants with recombinant human CD123 protein (CD123)-His Acrobio #ILA-H52H6) were determined by BLI on an Octet-384 (Sartorius/Fortebio, NY, USA) using Anti-penta His biosensors (Sartorius). PBST (1×PBS+1% BSA+0.05% Tween-20) buffer was used as Antibody/CD123 dilution and sensor hydration buffer. The experiment followed a five-step sequential assay at 24° C. First, biosensors were hydrated for 10 minutes. Samples and buffer were applied in 384-well plate. After initial baseline for 60 s, sensors were loaded with 7 nM hu IL-3R alpha (CD123)-His Acrobio #ILA-H52H6. The biosensors were dipped into PBST for 20 s to reach baseline, then incubated for 420 s with 2-fold serial diluted anti-CD123 antibodies starting at 10 nM for association, followed by 900 s in PBST for dissociation. Results were analyzed by ForteBio Data Analysis software 9.0 using 1:1 global fit model.
(BLI is a label-free optical method that tracks binding on a fibre tip over time.)

B1: h32716-3-1 IgG: humanized 32716 anti-CD123 IgG, VH SEQ ID NO: 78, VL SEQ ID NO: 79 (antibody, V domains shown)
VH: QVQLVQSGAEVKKPGSSVKVSCKASGYIFTNYGMNWVKQAPGQGFKWMGWINTYTGESTYSADFKGRFTFTLDESTSTAYMELSSLRSEDTAVYYCARSGGYDPMDYWGQGTLVTVSS
VL: DIVMTQSPDSLAVSLGERATINCRASESVDNYGNTFMHWYQQKPGQPPKLLIYRASNLESGVPDRFSGSGSGTDFTLTISSLQAEDVAVYYCQQSNEDPPTFGQGTRLEIK
In the case of B1, in the test with human CD123 on CHO cells, the HillSlope turned out to be 1.9 and the “Max binding intensity (MFI)” value was determined as 940000 MFI. Besides, the “affinity compared to the original murine IgG antibody” value in test [1] is on record as “slightly better affinity”.

B2: h32716-2-1 IgG: humanized 32716 anti-CD123 IgG, VH SEQ ID NO: 77, VL SEQ ID NO: 79 (antibody, V domains shown)
VH: QVQLVQSGAEVKKPGSSVKVSCKASGYIFTNYGMNWVKQAPGQGLEWMGWINTYTGESTYSADFKGRFTFTLDESTSTAYMELSSLRSEDTAVYYCARSGGYDPMDYWGQGTLVTVSS
VL: DIVMTQSPDSLAVSLGERATINCRASESVDNYGNTFMHWYQQKPGQPPKLLIYRASNLESGVPDRFSGSGSGTDFTLTISSLQAEDVAVYYCQQSNEDPPTFGQGTRLEIK
Regarding B2, in the test with human CD123 on CHO cells, the HillSlope was found to be 1.7 and the “Max binding intensity (MFI)” value is 930000 MFI.

B3: h32716-1-1 IgG: humanized 32716 anti-CD123 IgG, VH SEQ ID NO: 76, VL SEQ ID NO: 79 (antibody, V domains shown)
VH: QVQLVQSGAEVKKPGSSVKVSCKASGYIFTNYGMNWVRQAPGQGLEWMGWINTYTGESTYSADFKGRVTITADESTSTAYMELSSLRSEDTAVYYCARSGGYDPMDYWGQGTLVTVSS
VL: DIVMTQSPDSLAVSLGERATINCRASESVDNYGNTFMHWYQQKPGQPPKLLIYRASNLESGVPDRFSGSGSGTDFTLTISSLQAEDVAVYYCQQSNEDPPTFGQGTRLEIK
Consider B3, for which, in the test with human CD123 on CHO cells, the HillSlope is given as 2.0 and the “Max binding intensity (MFI)” value was 950000 MFI.

B4: h32716-4-2 IgG: humanized 32716 anti-CD123 IgG, VH SEQ ID NO: 80, VL SEQ ID NO: 83 (antibody, V domains shown)
VH: QVQLVQSGPELKKPGASVKVSCKASGYIFTNYGMNWVRQAPGQGLEWMGWINTYTGESTYSADFKGRFVFSLDTSVSTAYLQISSLKAEDTAVYYCARSGGYDPMDYWGQGTLVTVSS
VL: DIQMTQSPSSLSASVGDRVTITCRASESVDNYGNTFMHWYQQKPGKAPKLLIYRASNLESGVPSRFSGSGSGTDFTFTISSLQPEDIATYYCQQSNEDPPTFGQGTKVEIK
For the molecule B4, in the test with human CD123 on CHO cells, the HillSlope worked out at 2.4 and the “Max binding intensity (MFI)” value is 980000 MFI.

B5: h32716-6-2 IgG: humanized 32716 anti-CD123 IgG, VH SEQ ID NO: 82, VL SEQ ID NO: 83 (antibody, V domains shown)
VH: QVQLVQSGPELKKPGASVKVSCKASGYIFTNYGMNWVKQAPGQGFKWMGWINTYTGESTYSADFKGRFVFSLDTSVSTAYLQISSLKAEDTAVYYCARSGGYDPMDYWGQGTLVTVSS
VL: DIQMTQSPSSLSASVGDRVTITCRASESVDNYGNTFMHWYQQKPGKAPKLLIYRASNLESGVPSRFSGSGSGTDFTFTISSLQPEDIATYYCQQSNEDPPTFGQGTKVEIK
B5: in the test with human CD123 on CHO cells, the HillSlope turned out to be 1.9 and the “Max binding intensity (MFI)” value turned out to be 1000000 MFI.

B6: h32716-5-2 IgG: humanized 32716 anti-CD123 IgG, VH SEQ ID NO: 81, VL SEQ ID NO: 83 (antibody, V domains shown)
VH: QVQLVQSGPELKKPGASVKVSCKASGYIFTNYGMNWVKQAPGQGLEWMGWINTYTGESTYSADFKGRFVFSLDTSVSTAYLQISSLKAEDTAVYYCARSGGYDPMDYWGQGTLVTVSS
VL: DIQMTQSPSSLSASVGDRVTITCRASESVDNYGNTFMHWYQQKPGKAPKLLIYRASNLESGVPSRFSGSGSGTDFTFTISSLQPEDIATYYCQQSNEDPPTFGQGTKVEIK
As to B6, in the test with human CD123 on CHO cells, the HillSlope worked out at 2.2 and the “Max binding intensity (MFI)” value came out at 1100000 MFI.

B7: 32716 IgG: parental (mouse) anti-CD123 antibody 32716 VH/VL (SEQ ID NO: 74/75) cloned into human IgG format (antibody, V domains shown)
VH: QIQLVQSGPELKKPGETVKISCKASGYIFTNYGMNWVKQAPGKSFKWMGWINTYTGESTYSADFKGRFAFSLETSASTAYLHINDLKNEDTATYFCARSGGYDPMDYWGQGTSVTVSS
VL: DIVLTQSPASLAVSLGQRATISCRASESVDNYGNTFMHWYQQKPGQPPKLLIYRASNLESGIPARFSGSGSRTDFTLTINPVEADDVATYYCQQSNEDPPTFGAGTKLELK
modifications: human IgG constant regions
Take B7: in the test with human CD123 on CHO cells, the HillSlope was 2.2 and the “Max binding intensity (MFI)” value was 910000 MFI.
